Laboratory results from publication PMC2778949.

Molecular target: Serum Resistance-Associated protein with C-terminal S tag
Test: pull-down (sup/bound fractions, western blot with α-S tag), quantified
Conditions: read off a plot

Substance | percent of parent (parent: est. 100) | response (parent: est. 9)
Apolipoprotein L-I, wild type, with C-terminal V5-His6 tag (from UniProt O14791-1) N386T; N387K; N388I; Y389Q | 5.5 % binding | –
apoL1 truncated mutant NNNY (9 C-terminal amino acids removed, human last four residues NNNY), C-terminal V5-His6 tag (from UniProt O14791-1) N386T; N387K; N388I; Y389Q | – | 9.5 % binding
